Results on 1 substance are retold here after PMC3077247.

For this test, the target named is HECT domain of Nedd4, Y605A (as used for SPR) (UniProt P46934). The test is described as follows: SPR. On the technique in general: SPR reads the build-up and loss of mass on a sensor chip optically.
Chain of HECT domain of Nedd4, Y605A (as used for SPR) (P46934 938-1319 Y1024A): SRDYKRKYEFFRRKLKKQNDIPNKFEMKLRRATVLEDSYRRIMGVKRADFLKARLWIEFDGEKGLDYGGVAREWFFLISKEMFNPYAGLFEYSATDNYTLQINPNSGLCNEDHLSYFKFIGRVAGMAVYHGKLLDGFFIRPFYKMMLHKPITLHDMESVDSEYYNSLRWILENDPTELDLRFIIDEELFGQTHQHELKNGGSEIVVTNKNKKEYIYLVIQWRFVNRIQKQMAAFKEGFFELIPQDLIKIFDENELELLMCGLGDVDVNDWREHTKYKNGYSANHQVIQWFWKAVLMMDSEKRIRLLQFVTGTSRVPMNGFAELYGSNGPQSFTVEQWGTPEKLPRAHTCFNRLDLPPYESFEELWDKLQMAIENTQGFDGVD

In the case of “ubiquitin (monomeric) (from UniProt P0CG48 1-76) (natural protein)”, the fold decrease in binding against wild-type HECT^Nedd4 was found to be 20 fold.
